Data from US20190336589A1, “IMMUNIZING PEPTIDE, METHOD FOR PRODUCING IMMUNIZING PEPTIDE, PHARMACEUTICAL COMPOSITION FOR IMMUNE DISEASE CONTAINING SAME, AND METHOD FOR TREATING IMMUNE DISEASE” (OSAKA UNIVERSITY, priority 2015, published 2019).

Biological target: T1, complex of HEL peptide and MHC class II molecule (I-A^k) on 293 T cells (Mus musculus, UniProt P01910+P06343)
T1 construct: α-chain of mouse MHC class II molecule (I-A^k); β-chain of mouse MHC class II molecule (I-A^k); expressed in transfected cells; host or cells: 293T cells (pME18S vectors, co-transfected with pMX-GFP)
T1 sequence (P01910 24-256): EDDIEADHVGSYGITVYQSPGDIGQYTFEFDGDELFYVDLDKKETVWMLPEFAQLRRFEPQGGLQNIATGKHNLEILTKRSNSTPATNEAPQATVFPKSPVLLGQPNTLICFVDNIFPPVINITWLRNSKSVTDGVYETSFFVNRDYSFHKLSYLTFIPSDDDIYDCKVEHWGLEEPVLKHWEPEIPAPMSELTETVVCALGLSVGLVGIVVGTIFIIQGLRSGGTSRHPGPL
T1 sequence (P06343 28-263): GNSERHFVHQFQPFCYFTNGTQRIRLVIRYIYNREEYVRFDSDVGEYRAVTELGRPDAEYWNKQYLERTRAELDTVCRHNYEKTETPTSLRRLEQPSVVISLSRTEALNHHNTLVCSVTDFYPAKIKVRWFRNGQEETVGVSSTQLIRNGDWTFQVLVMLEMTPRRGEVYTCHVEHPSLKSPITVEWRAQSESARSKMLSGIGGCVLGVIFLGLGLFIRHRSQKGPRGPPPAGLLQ
Test: Flow cytometry of serum IgG from HEL protein-immunized mice binding to 293 T cells expressing I-A^k pulsed with HEL peptides
Excerpt: From mouse spleen cDNA, polynucleotides encoding the α-chain and the β-chain of a mouse MHC class II molecule (I-A^k) shown below were cloned into pME18S vectors, respectively. Thus, a mouse MHC class II molecule (I-A^k) α-chain expression vector (I-A^k a expression vector) and a mouse MHC class II molecule (I-A^k) β-chain expression vector (I-A^k β expression vector) were produced. As a GFP expression vector, pMX-GFP (obtained from the Division of Cellular Therapy in the Advanced Clinical Research Center of the Institute of Medical Science, the University of Tokyo) was used.
293T cells (obtained from RIKEN BioResource Center) were used as host cells to which the above-described expression vectors were to be introduced. First, the 293 T cells were seeded in a 24-well plate at a density of 2×10^5 cells/500 μl/well. Next, the expression vectors were introduced to the 293T cells using a PEI max solution obtained by dissolving a transfection 5 reagent (PEI max, Cosmo Bio Co., Ltd.) in purified water at a concentration of 2 mg/ml. Specifically, a mixture of 2 μl of the PEI max solution and 50 μl of a serum-free medium (OPTI-MEM®, GIBCO) was added to 50 μl of a serum-free medium containing 0.26 μg of the I-A^k c expression vector, 0.26 μg of the I-A^k f expression vector, and 0.26 μg of the GFP expression vector. Then, they were mixed together, whereby a transfection reagent was prepared. Thereafter, the transfection reagent was added to each well to introduce the expression vectors to the 293 T cells. After the introduction, the 293 T cells were cultured in a DMEM medium at 37° C. for 12 hours. Next, each of HEL peptides shown in Table 3 below was added to the wells at a concentration of 20 μmol/l. The 293 T cells were cultured for another 24 hours under the above-described culture conditions, whereby the 293 T cells were pulsed with the HEL peptide. The cultured 293 T cells were collected from the wells. Thereafter, the collected 293 T cells were used in antibody detection to be described below. The HEL peptides used in the present example and the following examples were obtained from SCRUM Inc., Eurofins Genomics K.K., or GenScript. In the HEL protein, a T-cell epitope presented by the MHC class II molecule I-A^k is a peptide consisting of the amino acid sequence of SEQ ID NO: 1 (DGSTDYGILQINSR). Thus, among the HEL peptides shown in Table 3 below, HEL peptide 41-70 corresponds to the immunizing peptide.
100 μg of a HEL protein (Sigma) was mixed with a complete Freund's adjuvant (CFA, Sigma), and the resultant mixture was administered subcutaneously to mice (B10.A strain). Two weeks after the administration, whole blood was collected from each mouse, and serum was collected from the whole blood.
The serum collected from each of the HEL protein-immunized mice was diluted 100-fold with a HANKS' BALANCED SALT SOLUTION (HBSS, Sigma) to obtain a diluted serum. Next, 10 μl of the diluted serum was added to the 293 T cells obtained in the above item (1) to cause a reaction. The 293 T cells after the reaction were washed, and then stained with an APC-labeled anti-mouse IgG (H+L) antibody (code-number: 715-136-150, Jackson ImmunoResearch). Thereafter, the stained 293 T cells were analyzed by flow cytometry (FACSCalibur™, Becton Dickinson) (peptide non-added groups). As peptide added groups, the HEL peptides shown in Table 3 above were added to the diluted serums, respectively, at a concentration of 40 μmol/l. Then, the diluted serums containing the respective HEL peptides were added to the 293 T cells pulsed with the corresponding HEL peptides to cause a reaction. Except for the above, the peptide added groups were analyzed by the flow cytometry analysis in the same manner.
Peptide non-added groups were analyzed by flow cytometry in the same manner as in the above item (3), except that, instead of the HEL peptides shown in Table 3 above, the HEL peptide 41-70, the HEL peptide 48-61, and HEL peptides shown in Table 4 below were used. […]

[1] = peptide added groups: same HEL peptide added to diluted serum at 40 μmol/l, serum of HEL protein-immunized mice
[2] = peptide non-added groups, serum of HEL protein-immunized mice diluted 100-fold, I-A^k 293 T cells pulsed with 20 μmol/l peptide

Sequence	serum IgG binding to 293 T cells pulsed with the HEL peptide [1]	serum IgG binding to 293 T cells pulsed with the HEL peptide [2]
DGSTDYGILQINSR (Gallus gallus domesticus) [HEL peptide 48-61, reference compound]	not observed	not observed
QATNRNTDGSTDYGILQINSRWWCNDGRTP (Gallus gallus domesticus) [HEL peptide 41-70]	observed	observed
